Laboratory results taken from the supplement of paper PMC11908140.

B1: library; numbered along this chain (parent)
chain: MRKPRAAVGSGHRKQAASQEGRQKHAKNNSQAKPSACDGLARQPEEVVLQASVSSYHLFRDVAEVTAFRGSLLSWYDQEKRDLPWRRRAEDEMDLDRRAYAVWVSEVMLQQTQVATVINYYTGWMQKWPTLQDLASASLEEVNQLWAGLGYYSRGRRLQEGARKVVEELGGHMPRTAETLQQLLPGVGRYTAGAIASIAFGQATGVVDGNVARVLCRVRAIGADPSSTLVSQQLWGLAQQLVDPARPGDFNQAAMELGATVCTPQRPLCSQCPVESLCRARQRVEQEQLLASGSLSGSPDVEECAPNTGQCHLCLPPSEPWDQTLGVVNFPRKASRKPPREESSATCVLEQPGALGAQILLVQRPNSGLLAGLWEFPSVTWEPSEQLQRKALLQELQRWAGPLPATHLRHLGEVVHTFSHIKLTYQVYGLALEGQTPVTTVPPGARWLTQEEFHTAAVSTAMKKVFRVYQGQQPGTCMGSKRSQVSSPCSRKKPRMGQQVLDNFFRSHISTDAHSLNSAAQ

Variants of: B1
Assay: 8OG:A repair function score (normalized; synonymous = 0, nonsense = -1) (normalized log-likelihood score); higher = more repair activity (WT-like)
Details: with 8OG:A DNA repair reporter (GFP) in HEK-293 MUTYH KO cells
Summary of the method: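 Per-tile Rosace fitness scores were converted to a normalized repair function score anchored on synonymous and nonsense distributions. That scale puts synonymous medians at 0 and nonsense medians at -1. Variants with starting counts under 300 counts per million were discarded. Input came from sorting viable mCherry+ MUTYH knockout HEK-293 cells, carrying lentiviral MUTYH cDNA NNN codon-scan libraries in 10 pg/ml doxycycline and an 8OG:A GFP repair reporter, into GFP+ and GFP− bins at 72 h, three replicates per tile, followed by tile amplicon sequencing.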
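Also: cells sorted at 72 h after reporter transfection.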

Variant	8OG:A repair function score
S231N	0.155
S231W	0.173
S231M	0.155
S231F	-0.24
S231H	-0.0123
S231G	-0.125
S231C	-0.12
S231V	-0.0155
S231T	0.0918
S231Y	-0.226
S231K	0.154
S231I	-0.0202
S231Q	-0.132
S231R	0.201
S231E	0.0501
S231A	-0.0555
S231L	-0.0707
S231P	-0.683
S231D	-0.132
Q233M	0.177
Q233W	-0.0138
Q233C	-0.188
Q233Y	0.0243
Q233N	-0.032

Variant	8OG:A repair function score
Q233I	0.198
Q233D	-0.318
Q233P	-0.428
Q233A	-0.259
Q233K	-0.089
Q233V	0.335
Q233T	0.244
Q233S	0.0726
Q233F	0.305
Q233R	-0.19
Q233L	0.227
Q233E	-0.306
Q233H	0.461
Q233G	-0.0523
Q232H	-0.21
Q232D	-0.0919
Q232S	-0.0424
Q232L	-0.326
Q232T	-0.105
Q232E	0.105
Q232R	0.171
Q232W	-0.433
Q232I	-0.459
Q232G	0.139

Variant	8OG:A repair function score
Q232F	-0.308
Q232P	-0.285
Q232M	-0.355
Q232K	-0.0471
Q232C	-0.188
Q232Y	-0.106
Q232N	-0.0697
Q232V	-0.243
Q232A	-0.179
A238I	-0.365
A238E	-0.688
A238H	-0.805
A238M	0.0352
A238K	-0.887
A238G	-0.603
A238D	-0.714
A238C	-0.249
A238R	-1.01
A238N	-0.887
A238Q	-0.254
A238T	-0.413
A238P	-1.01
A238S	-0.0308
A238L	-0.816

Variant	8OG:A repair function score
A238F	-0.858
L237P	-0.931
L237R	-0.738
L237D	-0.692
L237M	-0.32
L237S	-0.551
L237H	-0.433
L237W	-0.397
L237I	0.105
L237F	-0.257
L237K	-0.816
L237V	-0.463
L237Q	-0.281
L237E	-0.684
L237T	-0.184
L237A	-0.321
L237C	-0.474
L237Y	-0.0407
L237G	-0.848
L237N	-0.583
V230K	-0.826
V230G	-0.152
V230H	-0.63
V230M	-0.387

Variant	8OG:A repair function score
V230Q	-0.787
V230W	-0.571
V230D	-0.915
V230A	-0.0122
V230R	-0.524
V230L	-0.499
V230I	-0.264
V230N	-0.687
V230S	-0.422
V230P	-0.409
V230F	-0.517
V230T	-0.281
V230Y	-0.311
V230C	-0.229
V230E	-0.881
G236R	0.107
G236I	0.00703
G236C	0.116
G236P	-0.455
G236Q	0.356
G236V	-0.0226
G236D	0.156
G236L	-0.0738
G236T	-0.0456

Variant	8OG:A repair function score
G236K	0.114
G236A	0.149
G236Y	-0.152
G236F	0.0301
G236E	0.29
G236S	0.254
G236N	0.18
G236H	-0.00754
L229W	-0.0377
L229V	0.0526
L229Y	0.0445
W235E	-0.204
W235V	-0.467
W235L	-0.406
W235S	-0.516
W235A	-0.284
W235C	-0.509
W235M	-0.389
W235F	-0.292
W235G	-0.61
W235H	-0.343
W235N	-0.368
W235R	-0.496
W235T	-0.416

Variant	8OG:A repair function score
W235Y	-0.177
W235D	-0.452
W235K	-0.51
W235P	-1
W235I	-0.342
W235Q	-0.314
L234C	-0.521
L234G	-0.994
L234A	-0.833
L234K	-0.869
L234R	-1.01
L234D	-1.03
L234Q	-0.724
L234P	-1.02
L234T	-0.464
L234V	-0.29
L234H	-0.751
L234N	-0.855
L234W	-0.79
L234I	-0.183
L234S	-0.827
L234Y	-0.976
L234E	-0.954
